Patent US20110081661A1, “Modified photoproteins with increased affinity for calcium and enhanced bioluminescence and uses thereof” (Millipore Corporation, priority 2009, published 2011)
Changes are numbered by the printed parent chain. Names and notes keep the numbering of the source.

B1: Cyto-clytin wt: Wild type Clytin (wt-Clytin) amino acid sequence, SEQ ID NO:1; cytosolic (protein, listed as Clytia gregaria)
chain: MADTASKYAVKLRPNFDNPKWVNRHKFMFNFLDINGDGKITLDEIVSKASDDICAKLGATPEQTKRHQDAVEAFFKKIGMDYGKEVEFPAFVDGWKELANYDLKLWSQNKKSLIRDWGEAVFDIFDKDGSGSISLDEWKAYGRISGICSSDEDAEKTFKHCDLDNSGKLDVDEMTRQHLGFWYTLDPNADGLYGNFVP
B2: Mt-obelin: Mitochondrial Wild-type Obelin (mt-Obelin), SEQ ID NO:7 (protein, listed as Obelia longissima)
chain: MSVLTPLLLRGLTGSARRLPVPRAKIHSLPPEGKLMSSKYAVKLKTDFDNPRWIKRHKHMFDFLDINGNGKITLDEIVSKASDDICAKLEATPEQTKRHQVCVEAFFRGCGMEYGKEIAFPQFLDGWKQLATSELKKWARNEPTLIREWGDAVFDIFDKDGSGTITLDEWKAYGKISGISPSQEDCEATFRHCDLDNSGDLDVDEMTRQHLGFWYTLDPEADGLYGNGVP
B3: Mt-clytin K168E: Mitochondrial K168E modified Clytin, SEQ ID NO:12 (protein)
chain: MSVLTPLLLRGLTGSARRLPVPRAKIHSLPPEGKLRPNFDNPKWVNRHKFMFNFLDINGDGKITLDEIVSKASDDICAKLGATPEQTKRHQDAVEAFFKKIGMDYGKEVEFPAFVDGWKELANYDLKLWSQNKKSLIRDWGEAVFDIFDKDGSGSISLDEWKAYGRISGICSSDEDAEKTFKHCDLDNSGELDVDEMTRQHLGFWYTLDPNADGLYGNFVP
B4: Mt-clytin K168R: Mitochondrial K168R modified Clytin, SEQ ID NO:30 (protein)
chain: B3 chain with E191R
B5: Mt-clytin K168Y: Mitochondrial K168Y modified Clytin, SEQ ID NO:28 (protein)
chain: B3 chain with E191Y
B6: Mt-clytin K168H: Mitochondrial K168H modified Clytin, SEQ ID NO:14 (protein)
chain: B3 chain with E191H
B7: Mt-clytin K168V: Mitochondrial K168V modified Clytin, SEQ ID NO:26 (protein)
chain: B3 chain with E191V

Key:
[1] = target: GIP (gastric inhibitory polypeptide) receptor (UniProt P48546); test: cell-based or functional assay
GIP Receptor = target: T1, GIP Receptor (Homo sapiens, UniProt P48546); test: GIP receptor-mediated bioluminescence in HEK293T cells with chimeric promiscuous G protein (FIG. 5, Table II); type: cell-based; conditions: for Max signal with GIP (RLU × 10^−5) / EC50: HEK293T cells, GIP Receptor + promiscuous G protein; for EC50: luminescence vs GIP concentration; for % GPCR/total: signal induced by maximal GIP (1 μM) as percentage of signal induced by Triton X-100 with 1 mM Ca^2+; for Signal: background with GIP: signal induced by maximal GIP (1 μM) divided by signal induced by buffer alone
T1 construct: host or cells: HEK293T
T1 sequence (P48546 22-466): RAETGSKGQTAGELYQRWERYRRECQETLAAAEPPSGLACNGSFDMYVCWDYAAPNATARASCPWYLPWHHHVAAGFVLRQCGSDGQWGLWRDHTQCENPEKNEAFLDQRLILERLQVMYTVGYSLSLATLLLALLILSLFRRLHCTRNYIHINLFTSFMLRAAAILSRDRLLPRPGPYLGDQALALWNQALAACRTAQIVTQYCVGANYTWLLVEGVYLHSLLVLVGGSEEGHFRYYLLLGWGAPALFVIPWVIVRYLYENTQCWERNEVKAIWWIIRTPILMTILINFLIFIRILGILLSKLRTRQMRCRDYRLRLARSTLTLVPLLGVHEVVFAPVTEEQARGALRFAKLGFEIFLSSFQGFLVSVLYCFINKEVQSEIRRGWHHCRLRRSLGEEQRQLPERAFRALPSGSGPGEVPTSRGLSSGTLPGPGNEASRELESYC
Procedure: However, coexpression of GIP receptor with a chimeric G protein containing sequences from Gαs and Gαq enable the GIP receptor to stimulate calcium flux.
The results of the dose response curve to varying concentrations of GIP with a subset of the photoproteins are summarized in FIG. 5.
(§1) Signal to background ratio was calculated as the signal induced by maximal GIP (1 μM) divided by the signal induced by buffer alone. The EC50 value for calcium was determined as described above for FIG. 2 for mitochondrially targeted photoproteins transfected into HEK293T cells in the absence of a cotransfected GPCR or G protein. Affinity for calcium was correlated with the properties of the amino acid side chain at residue 168 of Clytin.
The EC50 value for receptor-mediated calcium flux induced by the ligand was determined by plotting luminescence (Y-axis) versus ligand concentration applied to the cells (X-axis), and applying a sigmoidal dose-response curve-fitting algorithm (GraphPad Prism). GPCR-mediated signals of the various modified forms of Clytin having an amino acid substitution at position 168 were also related to the nature of the side chain. In addition, the subcellular location of the photoproteins (cytosolic vs mitochondrial) appeared to have an effect on GPCR-mediated signals. […] All of the other mitochondrially targeted mutants except for Clytin K168R and wild-type Clytin yielded results that were in the range of those observed for wt-Aequorin.

H1 histamine receptor = target: T2, H1 histamine receptor (Homo sapiens, UniProt P35367); test: GPCR-mediated versus total bioluminescence in U-2OS cells (FIG. 4); type: cell-based; conditions: 10 μM histamine vs Triton X-100 with 1 mM calcium
T2 construct: expressed in transfected cells; host or cells: U-2OS
Procedure: In another experiment, the ability of the various photoproteins to detect calcium flux in live cells was assessed by adding varying concentrations of histamine to cells in order to activate the H1 histamine receptor followed by measurement of bioluminescence of the various photoproteins. U-2OS cells were transfected with a cDNA encoding H1 histamine receptor along with a cDNA encoding either a wild-type photoprotein or a modified photoprotein according to the invention, as described above in Example 2, except that Lipofectamine-2000 (INVITROGEN) was used as the transfection reagent. On the second day, the cells were trypsinized, counted, and plated in a white tissue-culture treated 96-well plate (COSTAR) at a density of about 50,000 cells/well in growth media consisting of DMEM containing 10% fetal bovine serum, non-essential amino acids, HEPES and penicillin/streptomycin. On the third day, the medium was removed and cells were washed once with 200 μl/well of HBSS/HEPES (containing Ca^2+). Cells were subsequently incubated with 5 μM coelenterazine in HBSS/HEPES (containing Ca^2+) in a volume of 200 μl/well, for 3-4 hours at room temperature in the dark. After incubation, the coelenterazine solution was removed and cells were washed and replaced with HBSS/HEPES buffer containing both Ca^2+ and Mg^2+. 50 μl/well of histamine at varying concentrations in HBSS/HEPES containing both Ca^2+ and Mg^2+ was added to the cells and total bioluminescence was measured at 20 seconds using a Victor2 luminometer.
In an exemplary experiment, U-2OS cells were transfected, plated and loaded with coelenterazine as described in Example 3. Luminescence induced by buffer alone or by 10 μM histamine was measured also as described in Example 3. Additionally, luminescence induced by addition of Triton X-100 in the presence of 1 mM calcium was also determined in order to assess the total amount of active photoprotein detectable using saturating calcium concentrations in cells.

[2] = Calcium EC50 of mitochondrially targeted photoproteins in HEK293T cells without cotransfected GPCR or G protein (Table II); type: cell-based; conditions: no cotransfected GPCR or G protein
Source text: (§2) In an exemplary experiment, HEK293T cells (ATCC-CRL-11268) were transiently co-transfected with 2 μgs of each of pcDNA3.1-H1 (containing the cDNA encoding the H1 histamine receptor) and pcDNA3.1 containing the cDNAs encoding wild type mitochondrial Clytin (referred to as mt-Clytin), modified mitochondrial Clytin having a lysine to aspartic acid mutation at position 168 (referred to as mt-Clytin K168D), modified mitochondrial Clytin having a lysine to glutamic acid mutation at position 168 (referred to as mt-Clytin K168E), wild-type mitochondrial Obelin (referred to as mt-Obelin) or wild type mitochondrial Aequorin (referred to as mt-Aequorin) using the Targefect-293 reagent (TARGETING SYSTEMS). 48 hours later, the cells were detached using Accutase (MILLIPORE), centrifuged, and resuspended in […] in FreeStyle293 media (INVITROGEN), for incubation for 3-4 hours at room temperature in the dark. After incubation, the cells were centrifuged and resuspended in HBSS/HEPES buffer without Ca^2+ at a density of 1×10^6 cells/ml. Next, 100 μl/well of cell suspension for each transfection were added by the use of a Victor2 luminometer plate reader (WALLAC, […]), to a 96-well plate containing 50 μL/well Triton X-100 in MOPS/KCl buffer containing 10 mM EGTA and a series of Ca^2+ concentrations, such that free calcium concentrations ranged from 17 nM to 39.6 μM, followed by for measurement of total bioluminescence at 20 seconds.
as §1

[3] = Calcium affinity of mitochondrial photoproteins, transient co-transfection with H1 histamine receptor in HEK293T cells (FIG. 2); type: cell-based; conditions: HEK293T cells co-transfected with H1 histamine receptor; Triton X-100, free calcium 17 nM to 39.6 μM; total bioluminescence at 20 seconds; read-out: EC50 value (affinity for Ca^2+)
Source text: Following the generation of modified forms of Clytin, the various variants were compared with wt-Aequorin for their affinity for intracellular calcium in transient transfection assays using co-transfection with the H1 histamine receptor (Genbank Accession No. NM_000861, obtained by PCR using H1-specific primers from a human brain cDNA library, forward primer 5′-[…] ATTCCTC-3′ (SEQ ID NO:60), reverse primer 5′-[…] AATTCTC-3′ (SEQ ID NO:61).
as §2

T2 sequence (P35367 whole entry): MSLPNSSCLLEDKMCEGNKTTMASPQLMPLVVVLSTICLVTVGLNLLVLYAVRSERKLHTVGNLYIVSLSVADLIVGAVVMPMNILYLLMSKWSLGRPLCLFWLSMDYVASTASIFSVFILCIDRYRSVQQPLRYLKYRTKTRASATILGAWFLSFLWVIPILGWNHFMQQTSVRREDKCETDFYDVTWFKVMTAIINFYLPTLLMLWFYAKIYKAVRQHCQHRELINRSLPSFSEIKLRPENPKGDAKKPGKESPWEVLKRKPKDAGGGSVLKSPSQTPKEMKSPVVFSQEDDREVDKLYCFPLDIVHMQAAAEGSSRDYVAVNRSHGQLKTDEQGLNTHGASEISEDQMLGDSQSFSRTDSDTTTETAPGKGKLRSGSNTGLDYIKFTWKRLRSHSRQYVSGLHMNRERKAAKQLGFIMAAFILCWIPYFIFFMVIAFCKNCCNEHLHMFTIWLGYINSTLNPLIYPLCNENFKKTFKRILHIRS

| Molecule | Max signal with GIP (RLU × 10^−5) (GIP Receptor) | EC50 (GIP Receptor) | % GPCR/total (GIP Receptor) | Signal: background with GIP (GIP Receptor) | EC50 [2] | also measured |
| --- | --- | --- | --- | --- | --- | --- |
| GIP (gastric inhibitory polypeptide) ligand (from UniProt P09681 52-93) |  |  |  |  |  | EC50 for GIP (nM); receptor-mediated calcium flux luminescence in HEK293T cells, reporter Cyto-aequorin [1]: 6.67 nM; EC50 for GIP (nM); receptor-mediated calcium flux luminescence in HEK293T cells, reporter Cyto-clytin K168D [1]: 4.01 nM; EC50 for GIP (nM); receptor-mediated calcium flux luminescence in HEK293T cells, reporter Cyto-clytin K168E [1]: 7.9 nM; EC50 for GIP (nM); receptor-mediated calcium flux luminescence in HEK293T cells, reporter Cyto-clytin wt [1]: 9.67 nM; EC50 for GIP (nM); receptor-mediated calcium flux luminescence in HEK293T cells, reporter Cyto-obelin [1]: 9.86 nM; EC50 for GIP (nM); receptor-mediated calcium flux luminescence in HEK293T cells, reporter Mt-aequorin [1]: 11.3 nM; EC50 for GIP (nM); receptor-mediated calcium flux luminescence in HEK293T cells, reporter Mt-clytin K168D [1]: 9.1 nM; EC50 for GIP (nM); receptor-mediated calcium flux luminescence in HEK293T cells, reporter Mt-clytin K168E [1]: 21.6 nM; EC50 for GIP (nM); receptor-mediated calcium flux luminescence in HEK293T cells, reporter Mt-clytin K168G [1]: 15.1 nM; EC50 for GIP (nM); receptor-mediated calcium flux luminescence in HEK293T cells, reporter Mt-clytin K168H [1]: 19.2 nM; EC50 for GIP (nM); receptor-mediated calcium flux luminescence in HEK293T cells, reporter Mt-clytin K168N [1]: 21 nM; EC50 for GIP (nM); receptor-mediated calcium flux luminescence in HEK293T cells, reporter Mt-clytin K168Q [1]: 17.4 nM; EC50 for GIP (nM); receptor-mediated calcium flux luminescence in HEK293T cells, reporter Mt-clytin K168R [1]: 29.1 nM; EC50 for GIP (nM); receptor-mediated calcium flux luminescence in HEK293T cells, reporter Mt-clytin K168S [1]: 15.4 nM; EC50 for GIP (nM); receptor-mediated calcium flux luminescence in HEK293T cells, reporter Mt-clytin K168T [1]: 13.4 nM; EC50 for GIP (nM); receptor-mediated calcium flux luminescence in HEK293T cells, reporter Mt-clytin K168V [1]: 16.8 nM; EC50 for GIP (nM); receptor-mediated calcium flux luminescence in HEK293T cells, reporter Mt-clytin K168Y [1]: 16.4 nM; EC50 for GIP (nM); receptor-mediated calcium flux luminescence in HEK293T cells, reporter Mt-clytin wt [1]: 12.9 nM; EC50 for GIP (nM); receptor-mediated calcium flux luminescence in HEK293T cells, reporter Mt-obelin [1]: 13.7 nM |
| B1 | 0.2 RLU × 10^−5 | 9.67 nM | 0.3% | 7.0 |  | GPCR-mediated signal as % of the total signal (H1 histamine receptor): ~3% |
| B2 | 3.66 RLU × 10^−5 | 13.7 nM | 116% | 172.5 | 373 nM |  |
| B3 | 6.07 RLU × 10^−5 | 21.6 nM | 19.8% | 120.8 | 176 nM | EC50 [3]: 173 nM |
| B4 | 1.89 RLU × 10^−5 | 29.1 nM | 3.3% | 86.8 | 581 nM |  |
| B5 | 2.89 RLU × 10^−5 | 16.4 nM | 18.5% | 112.8 | 284 nM |  |
| B6 | 4.98 RLU × 10^−5 | 19.2 nM | 14.9% | 148.3 | 459 nM |  |
| B7 | 3.60 RLU × 10^−5 | 16.8 nM | 18.5% | 158.0 | 389 nM |  |
